Results taken from the supplement of paper PMC9112550, “Optimization of the antimicrobial peptide Bac7 by deep mutational scanning” (BMC Biology, 2022).

Test system: Escherichia coli TOP10
Assay: shrunken log2 fold change of peptide-encoding DNA abundance (4.5 h post-induction vs induction); higher = less antimicrobial activity (less host growth inhibition)
Details: time post-induction: 4.5 h; library: site-saturation at positions 5, 18, 19, 20
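Also: peptides expressed intracellularly from a pBAD plasmid library in pooled LB shake-flask culture, induced with 0.3% L-arabinose, DNA abundance read by NGS, three biological replicates, DESeq2 with apeglm shrinkage.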

| Sequence | shrunken log2 fold change |
| --- | --- |
| RRIRQRPPRLPRPRPRPCGRPRP | 0.411 |
| RRIRRRPPRLPRPRPRPQHVPRP | -0.0783 |
| RRIRPRPPRLPRPRPRPWHGPRP | 0.0257 |
| RRIRVRPPRLPRPRPRPETIPRP | 0.0608 |
| RRIRARPPRLPRPRPRPVRQPRP | 0.855 |
| RRIRCRPPRLPRPRPRPLVSPRP | -0.245 |
| RRIRLRPPRLPRPRPRPMHYPRP | -0.094 |
| RRIRMRPPRLPRPRPRPTPIPRP | 0.255 |
| RRIRCRPPRLPRPRPRPMMMPRP | 2.91 |
| RRIRPRPPRLPRPRPRPINTPRP | -0.844 |
| RRIRLRPPRLPRPRPRPTWPPRP | 0.705 |
| RRIRGRPPRLPRPRPRPDCVPRP | 1.39 |
| RRIRDRPPRLPRPRPRPPQKPRP | -0.0517 |
| RRIRQRPPRLPRPRPRPWMKPRP | 0.0212 |
| RRIRIRPPRLPRPRPRPITTPRP | -0.338 |
| RRIRMRPPRLPRPRPRPTVWPRP | 0.736 |
| RRIRFRPPRLPRPRPRPHEPPRP | -0.164 |
| RRIRARPPRLPRPRPRPCAAPRP | 0.893 |
| RRIRARPPRLPRPRPRPLRVPRP | 3.15 |
| RRIRTRPPRLPRPRPRPLMIPRP | -0.0131 |
| RRIRYRPPRLPRPRPRPARVPRP | -0.0653 |
| RRIRKRPPRLPRPRPRPAFHPRP | 0.0641 |
| RRIRGRPPRLPRPRPRPGYVPRP | -0.00987 |

| Sequence | shrunken log2 fold change |
| --- | --- |
| RRIRLRPPRLPRPRPRPRSNPRP | 1.62 |
| RRIRGRPPRLPRPRPRPIFSPRP | 0.312 |
| RRIRCRPPRLPRPRPRPKHIPRP | -0.443 |
| RRIRERPPRLPRPRPRPKGGPRP | -0.0194 |
| RRIRSRPPRLPRPRPRPWFQPRP | -0.246 |
| RRIRERPPRLPRPRPRPNYFPRP | -0.57 |
| RRIRGRPPRLPRPRPRPSDSPRP | -0.0596 |
| RRIRSRPPRLPRPRPRPDMYPRP | 0.00612 |
| RRIRCRPPRLPRPRPRPIVGPRP | -0.477 |
| RRIRPRPPRLPRPRPRPILMPRP | -0.112 |
| RRIRIRPPRLPRPRPRPWQFPRP | -0.243 |
| RRIRQRPPRLPRPRPRPLAHPRP | -0.0319 |
| RRIRCRPPRLPRPRPRPHEPPRP | -0.00114 |
| RRIRFRPPRLPRPRPRPDRHPRP | -0.164 |
| RRIRGRPPRLPRPRPRPEAGPRP | 1.21 |
| RRIRNRPPRLPRPRPRPNPEPRP | -0.224 |
| RRIRCRPPRLPRPRPRPGRRPRP | 1.11 |
| RRIRCRPPRLPRPRPRPRNFPRP | -0.0465 |
| RRIRARPPRLPRPRPRPLMQPRP | 0.223 |
| RRIRARPPRLPRPRPRPMQLPRP | 0.206 |
| RRIRERPPRLPRPRPRPDEWPRP | -0.215 |
| RRIRARPPRLPRPRPRPYHSPRP | -0.237 |
| RRIRERPPRLPRPRPRPTLMPRP | 0.0249 |

| Sequence | shrunken log2 fold change |
| --- | --- |
| RRIRMRPPRLPRPRPRPLSSPRP | -0.0576 |
| RRIRFRPPRLPRPRPRPFCYPRP | -0.372 |
| RRIRTRPPRLPRPRPRPPYCPRP | -0.112 |
| RRIRQRPPRLPRPRPRPTETPRP | 0.0687 |
| RRIRRRPPRLPRPRPRPERPPRP | 0.991 |
| RRIRRRPPRLPRPRPRPRRNPRP | 0.223 |
| RRIRNRPPRLPRPRPRPFCQPRP | -0.677 |
| RRIRQRPPRLPRPRPRPQYNPRP | -1.1 |
| RRIRDRPPRLPRPRPRPEDEPRP | 1.76 |
| RRIRRRPPRLPRPRPRPNNGPRP | -0.277 |
| RRIRGRPPRLPRPRPRPNYQPRP | -0.173 |
| RRIRERPPRLPRPRPRPIQRPRP | 0.146 |
| RRIRCRPPRLPRPRPRPASVPRP | 0.176 |
| RRIRNRPPRLPRPRPRPQCQPRP | -0.0453 |
| RRIRKRPPRLPRPRPRPFSEPRP | -0.0185 |
| RRIRIRPPRLPRPRPRPYHCPRP | -0.0272 |
| RRIRMRPPRLPRPRPRPKCPPRP | 0.108 |
| RRIRCRPPRLPRPRPRPDPAPRP | 0.412 |
| RRIRDRPPRLPRPRPRPWLTPRP | -0.0223 |
| RRIRWRPPRLPRPRPRPHHLPRP | -0.71 |
| RRIRGRPPRLPRPRPRPDVDPRP | 1.82 |
| RRIRHRPPRLPRPRPRPLIFPRP | -0.38 |
| RRIRIRPPRLPRPRPRPHCFPRP | -0.824 |

| Sequence | shrunken log2 fold change |
| --- | --- |
| RRIRKRPPRLPRPRPRPFIRPRP | -0.21 |
| RRIRFRPPRLPRPRPRPDMTPRP | -0.0215 |
| RRIRWRPPRLPRPRPRPMGRPRP | -0.012 |
| RRIRKRPPRLPRPRPRPDKTPRP | -0.0726 |
| RRIRSRPPRLPRPRPRPPAAPRP | 1.1 |
| RRIRERPPRLPRPRPRPICWPRP | 0.0372 |
| RRIRPRPPRLPRPRPRPIHGPRP | -0.00809 |
| RRIRARPPRLPRPRPRPWLLPRP | 0.156 |
| RRIRTRPPRLPRPRPRPMRLPRP | -0.0194 |
| RRIRWRPPRLPRPRPRPDENPRP | 0.644 |
| RRIRMRPPRLPRPRPRPSMTPRP | 2.18 |
| RRIRNRPPRLPRPRPRPSFGPRP | 0.00557 |
| RRIRFRPPRLPRPRPRPAHFPRP | 0.0115 |
| RRIRNRPPRLPRPRPRPMFQPRP | -0.0465 |
| RRIRQRPPRLPRPRPRPQFGPRP | 0.0348 |
| RRIRTRPPRLPRPRPRPEYWPRP | -0.00483 |
| RRIRERPPRLPRPRPRPNLHPRP | 0.504 |
| RRIRNRPPRLPRPRPRPAKDPRP | 0.0231 |
| RRIRGRPPRLPRPRPRPAWYPRP | 0.405 |
| RRIRARPPRLPRPRPRPTRYPRP | 0.356 |
| RRIRFRPPRLPRPRPRPIYAPRP | -0.143 |
| RRIRSRPPRLPRPRPRPPNYPRP | -0.606 |
